Results taken from PMC7846482 (The Journal of Biological Chemistry, 2021).

Biological target: T1, SΔTM deglycosylated by PNGase F (trimeric spike protein without transmembrane domain) (SARS-CoV-2 Wuhan-Hu-1, UniProt P0DTC2, stabilised, deglycosylated by PNGase F)
T1 construct: also called nonglycosylated SΔTM; deglycosylated spike protein
Experiment: western blotting
Settings: both partners purified

B1: mouse anti-SARS-CoV-2 spike monoclonal antibody clone R31 (antibody, V domains shown)
VH: QVQLQQSGAELVRPGTSVKISCKASYTFTNYWLAWVKQRPGHGLEWIGDIYPGGAYTNFNEKFKGKATLTADTSSSTAYMQLSSLTSEDSAVYFCARDGHYGYAMDYWGQGTSVTVSS
VL: DIVMTQAAFSNPVTLGTSASISCRSSKSLLHSNGITYLYWYLQKPGQSPQLLIYQMSDLASGVPDRFSSSGSGTDFTLRISRVEAEDVGVYYCAQNLELPRTFGGGIKLEIK
B1: binds.
